Values belong to the molecule of their own block, whether it stands above or below them.
Legend:
[1] = molecular target: T1, NF-AT3 full length (NFATC4) (UniProt Q14934); experiment: cell_activity; conditions: CAT reporter activation with GATA4, NF-AT3 and activated calcineurin together in rat cardiomyocytes
T1 sequence: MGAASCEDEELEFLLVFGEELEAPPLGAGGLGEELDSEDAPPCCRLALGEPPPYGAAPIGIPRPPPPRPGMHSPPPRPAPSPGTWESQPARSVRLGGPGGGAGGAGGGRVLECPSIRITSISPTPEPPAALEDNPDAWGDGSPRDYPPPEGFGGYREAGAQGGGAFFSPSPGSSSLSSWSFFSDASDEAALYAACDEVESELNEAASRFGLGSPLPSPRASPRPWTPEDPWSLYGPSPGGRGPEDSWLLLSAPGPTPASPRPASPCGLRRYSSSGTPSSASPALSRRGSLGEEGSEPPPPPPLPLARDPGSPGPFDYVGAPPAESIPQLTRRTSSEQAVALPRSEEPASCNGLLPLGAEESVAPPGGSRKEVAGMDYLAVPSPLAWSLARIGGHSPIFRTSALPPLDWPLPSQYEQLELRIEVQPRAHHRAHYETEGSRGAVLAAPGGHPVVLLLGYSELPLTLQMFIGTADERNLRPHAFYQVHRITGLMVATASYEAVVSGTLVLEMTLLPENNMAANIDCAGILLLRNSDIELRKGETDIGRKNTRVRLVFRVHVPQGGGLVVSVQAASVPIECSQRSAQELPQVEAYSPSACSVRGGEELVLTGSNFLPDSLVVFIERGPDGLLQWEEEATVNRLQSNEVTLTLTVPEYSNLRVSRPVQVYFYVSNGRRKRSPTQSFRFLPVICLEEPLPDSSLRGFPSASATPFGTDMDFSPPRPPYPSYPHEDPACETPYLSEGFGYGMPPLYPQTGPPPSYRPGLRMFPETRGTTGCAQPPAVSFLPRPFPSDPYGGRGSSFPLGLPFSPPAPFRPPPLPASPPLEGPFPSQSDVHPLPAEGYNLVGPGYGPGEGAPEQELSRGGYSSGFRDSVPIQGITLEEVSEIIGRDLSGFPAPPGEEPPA

full-length GATA4 = full-length GATA4 (UniProt Q08369 1-441, limits assumed); experiment: cell-based or functional assay
Sequence of full-length GATA4 (Q08369 whole entry): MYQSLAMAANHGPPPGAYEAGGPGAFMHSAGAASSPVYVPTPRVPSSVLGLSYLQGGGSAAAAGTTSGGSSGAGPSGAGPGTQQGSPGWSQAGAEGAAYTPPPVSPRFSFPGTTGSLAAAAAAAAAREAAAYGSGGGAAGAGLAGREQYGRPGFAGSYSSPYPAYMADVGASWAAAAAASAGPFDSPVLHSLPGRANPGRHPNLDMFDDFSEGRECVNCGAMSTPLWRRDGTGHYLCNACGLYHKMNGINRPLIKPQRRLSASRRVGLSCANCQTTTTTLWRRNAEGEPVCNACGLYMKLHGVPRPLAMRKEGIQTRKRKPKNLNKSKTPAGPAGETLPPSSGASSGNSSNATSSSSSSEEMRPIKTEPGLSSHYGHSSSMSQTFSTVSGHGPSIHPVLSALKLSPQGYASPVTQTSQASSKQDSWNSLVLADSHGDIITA

Molecule: BNP promoter 1800 bp
activity [1]: > 100 fold

activation of the BNP promoter (CAT reporter) in transfected neonatal rat cardiomyocytes (full-length GATA4): > 100 fold
B1: full length NF-AT3 (other)
chain: T1 sequence

Source: patent publication US20060282909A1 (published 2006)
